The supplement of paper PMC10567573

B1: TRIM35 (parent)
chain: DKELLCCSCQADPRHQGHRVQPVK

Variants of: B1
Experiment: protein stability index of a GFP-peptide fusion (GPS, HEK-293T) (PSI 1-6); higher = more stable
Conditions: c terminus: a fixed tail appended
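Note: lentivirally expressed fusions sorted by FACS into six bins by GFP to DsRed ratio, PSI derived from sequencing read proportions per bin multiplied by bin number.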

| Variant | protein stability index |
| --- | --- |
| DKELLCCSCQADPRHQGHRVQLVK | 2.84 |
| DKELLCCSCQADPRHQGHRVQTVK | 4.03 |
| DKELLCCSCQADPRHQGHRVQAVK | 3.97 |
| DKELLCCSCQADPRHQGHRVQMVK | 2.73 |
| DKELLCCSCQADPRHQGHRVQKVK | 4.08 |
| DKELLCCSCQADPRHQGHRVQCVK | 4.52 |
| DKELLCCSCQADPRHQGHRVQDVK | 4.11 |
| DKELLCCSCQADPRHQGHRVQHVK | 3.31 |
| DKELLCCSCQADPRHQGHRVQEVK | 4.53 |
| DKELLCCSCQADPRHQGHRVQVVK | 2.68 |
| DKELLCCSCQADPRHQGHRVQFVK | 3.44 |
| DKELLCCSCQADPRHQGHRVQNVK | 3.05 |
| DKELLCCSCQADPRHQGHRVQIVK | 3.04 |
| DKELLCCSCQADPRHQGHRVQSVK | 3.08 |
| DKELLCCSCQADPRHQGHRVQYVK | 2.92 |
| DKELLCCSCQADPRHQGHRVQQVK | 4.04 |
| DKELLCCSCQADPRHQGHRVQRVK | 3.4 |
| DKELLCCSCQADPRHAGHRVQPVK | 3.52 |
| DKELLCCSCQADPRHCGHRVQPVK | 4.54 |
| DKELLCCSCQADPRHDGHRVQPVK | 3.98 |
| DKELLCCSCQADPRHNGHRVQPVK | 3.33 |
| DKELLCCSCQADPRHKGHRVQPVK | 3.96 |
| DKELLCCSCQADPRHMGHRVQPVK | 2.66 |
| DKELLCCSCQADPRHTGHRVQPVK | 3.23 |

| Variant | protein stability index |
| --- | --- |
| DKELLCCSCQADPRHGGHRVQPVK | 3.82 |
| DKELLCCSCQADPRHLGHRVQPVK | 3.43 |
| DKELLCCSCQADPRHFGHRVQPVK | 2.32 |
| DKELLCCSCQADPRHYGHRVQPVK | 2.57 |
| DKELLCCSCQADPRHEGHRVQPVK | 3.87 |
| DKELLCCSCQADPRHWGHRVQPVK | 2.67 |
| DKELLCCSCQADPRHSGHRVQPVK | 3.72 |
| DKELLCCSCQADPRHIGHRVQPVK | 3.82 |
| DKELLCCSCQADPRHRGHRVQPVK | 3.34 |
| DKELLCCSCQADPRHPGHRVQPVK | 3.66 |
| DKELLCCSCQADPRHHGHRVQPVK | 3.58 |
| DKELLCCSCQADPRHVGHRVQPVK | 2.88 |
| DKELLCCSCQADPRHQMHRVQPVK | 2.88 |
| DKELLCCSCQADPRHQWHRVQPVK | 2.67 |
| DKELLCCSCQADPRHQNHRVQPVK | 3.82 |
| DKELLCCSCQADPRHQDHRVQPVK | 3.88 |
| DKELLCCSCQADPRHQFHRVQPVK | 3.49 |
| DKELLCCSCQADPRHQTHRVQPVK | 3.78 |
| DKELLCCSCQADPRHQEHRVQPVK | 4.17 |
| DKELLCCSCQADPRHQAHRVQPVK | 3.19 |
| DKELLCCSCQADPRHQRHRVQPVK | 3.84 |
| DKELLCCSCQADPRHQVHRVQPVK | 3.08 |
| DKELLCCSCQADPRHQSHRVQPVK | 3.66 |
| DKELLCCSCQADPRHQYHRVQPVK | 3.37 |

| Variant | protein stability index |
| --- | --- |
| DKELLCCSCQADPRHQQHRVQPVK | 3.59 |
| DKELLCCSCQADPRHQKHRVQPVK | 3.99 |
| DKELLCCSCQADPRHQHHRVQPVK | 3.95 |
| DKELLCCSCQADPRHQPHRVQPVK | 3.12 |
| DKELLCCSCQADPRHQIHRVQPVK | 3.48 |
| DKELLCCSCQADPRHQLHRVQPVK | 3.35 |
| DKELLCCSCQADPRHQCHRVQPVK | 4.33 |
| DKELLCCSCQADPRHQGHRVTPVK | 1.96 |
| DKELLCCSCQADPRHQGHRVFPVK | 2.79 |
| DKELLCCSCQADPRHQGHRVCPVK | 3.92 |
| DKELLCCSCQADPRHQGHRVWPVK | 2.52 |
| DKELLCCSCQADPRHQGHRVHPVK | 3.61 |
| DKELLCCSCQADPRHQGHRVYPVK | 2.91 |
| DKELLCCSCQADPRHQGHRVGPVK | 3.28 |
| DKELLCCSCQADPRHQGHRVNPVK | 4 |
| DKELLCCSCQADPRHQGHRVMPVK | 3.68 |
| DKELLCCSCQADPRHQGHRVSPVK | 3.96 |
| DKELLCCSCQADPRHQGHRVPPVK | 3.56 |
| DKELLCCSCQADPRHQGHRVLPVK | 3.15 |
| DKELLCCSCQADPRHQGHRVDPVK | 4.05 |
| DKELLCCSCQADPRHQGHRVIPVK | 2.65 |
| DKELLCCSCQADPRHQGHRVKPVK | 3.74 |
| DKELLCCSCQADPRHQGHRVEPVK | 4.26 |
| DKELLCCSCQADPRHQGHRVRPVK | 3.71 |

| Variant | protein stability index |
| --- | --- |
| DKELLCCSCQADPRHQGHRVAPVK | 3.79 |
| DKELLCCSCQADPRKQGHRVQPVK | 3.44 |
| DKELLCCSCQADPRWQGHRVQPVK | 3.33 |
| DKELLCCSCQADPRIQGHRVQPVK | 2.99 |
| DKELLCCSCQADPRGQGHRVQPVK | 3.15 |
| DKELLCCSCQADPRDQGHRVQPVK | 4.23 |
| DKELLCCSCQADPRTQGHRVQPVK | 3.57 |
| DKELLCCSCQADPRQQGHRVQPVK | 3.02 |
| DKELLCCSCQADPRLQGHRVQPVK | 3.52 |
| DKELLCCSCQADPRVQGHRVQPVK | 2.95 |
| DKELLCCSCQADPRFQGHRVQPVK | 3.62 |
| DKELLCCSCQADPREQGHRVQPVK | 3.56 |
| DKELLCCSCQADPRSQGHRVQPVK | 3.78 |
| DKELLCCSCQADPRCQGHRVQPVK | 4.26 |
| DKELLCCSCQADPRNQGHRVQPVK | 3.33 |
| DKELLCCSCQADPRYQGHRVQPVK | 3 |
| DKELLCCSCQADPRPQGHRVQPVK | 3.54 |
| DKELLCCSCQADPRAQGHRVQPVK | 3.48 |
| DKELLCCSCQADPRMQGHRVQPVK | 2.96 |
| DKELLCCSCQADPRHQGHRDQPVK | 4.14 |
| DKELLCCSCQADPRHQGHRKQPVK | 3.5 |
| DKELLCCSCQADPRHQGHRLQPVK | 3.91 |
